Results reported in paper PMC8073977, “Structural Basis for the C-Terminal Domain of Mycobacterium tuberculosis Ribosome Maturation Factor RimM to Bind Ribosomal Protein S19” (Biomolecules, 2021).
Numbering of substitutions follows the chain as printed. Names may count otherwise.

B1: C-terminal domain of RimM from Mycobacterium tuberculosis (MtbRimMCTD, residues 101-176), wild type (domain or fragment)
chain: DTYYDHQLVGLMVQTATGEGVGVVTEVVHTAAGELLAVKRDSDEVLVPFVRAIVTSVSLDDGIVEIDPPHGLLNLE
notes: A starting Met stands before D101 (Nde I site); Surmise: pET-22b with Xho I adds Leu-Glu before the His6 tag; Theoretical Mw of the recombinant protein printed as 9.28 kDa; 15N-labelled in the NMR titrations, unlabelled in SPR; also called WT MtbRimMCTD; not shown: His6, C-terminal, kept
B2: MtbRimMCTD D105A (domain or fragment)
chain: B1 chain with D5A
notes: Same limits and tag as m1; also called MtbRimM D105A; not shown: His6, C-terminal, kept
B3: MtbRimMCTD E144A (domain or fragment)
chain: B1 chain with E44A
notes: Same limits and tag as m1; not shown: His6, C-terminal, kept
B4: MtbRimMCTD E126A (domain or fragment)
chain: B1 chain with E26A
notes: as for B3
B5: MtbRimMCTD H129A (domain or fragment)
chain: B1 chain with H29A
notes: as for B3

Target: T1, Ribosomal protein S19 from Mycobacterium tuberculosis (MtbS19, residues 1-93) (Mycobacterium tuberculosis strain H37Rv, UniProt P9WH45 1-93)
T1 construct: 30S ribosomal protein S19, M. tuberculosis H37Rv, residues 1-93; pET-28a with thrombin-cleavable N-terminal His6-tag; Surmise: a few vector residues remain at the N-terminus after thrombin cleavage; In PDB 5V93 residues 84-93 of S19 are absent; not shown: His6, N-terminal, cleaved
T1 sequence (P9WH45 whole entry, the tested form may be a part): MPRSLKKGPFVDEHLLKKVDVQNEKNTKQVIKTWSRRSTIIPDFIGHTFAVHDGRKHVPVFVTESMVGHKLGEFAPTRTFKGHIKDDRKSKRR
Test: SPR; Biacore T200, 298 K; […]; 20 mM potassium phosphate pH 7.2, 100 mM KCl; […]
Conditions: both partners purified

Binder | Kd [µM] | binding result
B1 | 2.16 | 
B2 | 7.06 | 
B3 |  | binds
B4 |  | binds
B5 | 12.7 | 
